The source of these data is publication PMC4731787, “Structural basis for the recognition of two consecutive mutually interacting DPF motifs by the SGIP1 μ homology domain” (Scientific Reports, 2016).

For one test, the system named is human full-length FCHo1. Conditions: pull-down assay; lower than the other longer fragments with more DPF motifs tested in the same reference; ref Umasankar et al.23; cited from earlier work. An excerpt: page 12: Supplementary Table 3 Regions of Eps15, Eps15R, and Dab2, involved in binding to the µHDs of SGIP1/ SGIP1α/FCHo1/FCHo2 from various sources. µHD-containing protein µHD-binding Region involved in binding Number of DPF motifs Method used to confirm binding Strength of Reference protein to the µHD in the binding region affinity mouse SGIP1 µHD (aa501–807) Eps15 a residues 594–896 15 b pull-down assay (competition) unknown Reider et al. 8 mouse SGIP1α µHD (aa561–854) rat Eps15 residues 593–894 15 pull-down assay unknown Uezu et al.19 mouse SGIP1α µHD (aa428–854) rat Eps15 residues 636–747 ...

Test [1] deals with T1, FCHo1 μ homology domain (residues 623 to 889) (human, UniProt O14526-1 623-889).
T1 construct: FCHo1 (FCH domain only 1), human, μ homology domain, residues 623-889; also called FCHo1 μHD; source: E. coli, purified in the same manner as for the SGIP1 μHD
T1 sequence (looked up): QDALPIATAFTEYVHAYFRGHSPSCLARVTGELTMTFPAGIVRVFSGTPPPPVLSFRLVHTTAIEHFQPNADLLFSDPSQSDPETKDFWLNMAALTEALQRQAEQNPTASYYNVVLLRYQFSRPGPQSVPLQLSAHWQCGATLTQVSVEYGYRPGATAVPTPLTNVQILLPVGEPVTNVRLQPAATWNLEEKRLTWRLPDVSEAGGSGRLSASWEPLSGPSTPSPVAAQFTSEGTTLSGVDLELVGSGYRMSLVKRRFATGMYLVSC
Put plainly: ITC; VP-ITC, 25 °C, 50 mM Tris-HCl pH 8.0, 50 mM NaCl; for the majority the μHD (SGIP1, its mutants or FCHo1) in the cell, titrated with Eps15 fragments or peptides, for others the reverse (Supplementary Table 2); repeated twice, global fit with SEDPHAT, single-site or two-site model. Conditions: both partners purified.

Test [2] deals with T2, SGIP1 μ homology domain (residues 552 to 828) (human, UniProt Q9BQI5-1 552-828).
T2 construct: A SeMet-substituted form (E. coli B834(DE3)) was used only for the structure of the domain alone; also called SGIP1 μHD; μHD; source: E. coli BL21-Gold (DE3) or Rosetta2, purified (Glutathione Sepharose, 3C protease cleavage on the column, Superdex 200)
T2 sequence (looked up): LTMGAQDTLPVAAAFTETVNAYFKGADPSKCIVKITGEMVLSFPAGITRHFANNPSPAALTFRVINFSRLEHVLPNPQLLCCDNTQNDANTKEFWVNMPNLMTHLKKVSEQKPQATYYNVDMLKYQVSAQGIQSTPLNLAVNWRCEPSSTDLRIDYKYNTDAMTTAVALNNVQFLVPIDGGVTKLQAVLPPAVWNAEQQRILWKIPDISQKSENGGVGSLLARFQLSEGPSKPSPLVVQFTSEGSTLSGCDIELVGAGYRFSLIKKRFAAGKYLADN
The description is as above. Conditions: both partners purified.

Regarding “Eps15 residues 595–636: Eps15 region of a previous report, first DPF motifs of the high-affinity site, source assumed human (SKEEDPFNVDSSSLTGPVADTNLDFFQSDPFVGSDPFKDDPF; UniProt P42566 595-636, looked up, fragment)”, the Strength of affinity entry in the test on human full-length FCHo1 was “low”.

B1: Eps15-618–654 (domain or fragment, human, UniProt P42566-1 618-654, looked up)
chain: DFFQSDPFVGSDPFKDDPFGKIDPFGGDPFKGSDPFA
notes: also called 37-residue region containing six consecutive DPF motifs; source: E. coli, purified in the same manner as for the SGIP1 μHD
On to B1, for which the binding result in test [1] is listed as “binds”. Also, the “Kd of the high-affinity site (two-site model)” value in test [2] was approximately 65 nM.
